We go through one molecule from paper PMC3093132.

In this series the target is hExo1 catalytic domain D173A (Homo sapiens, UniProt Q9UQ84 1-352, D173A). The experiment in a line: crystal structure.
Chain of hExo1 catalytic domain D173A (Q9UQ84 1-352 D173A): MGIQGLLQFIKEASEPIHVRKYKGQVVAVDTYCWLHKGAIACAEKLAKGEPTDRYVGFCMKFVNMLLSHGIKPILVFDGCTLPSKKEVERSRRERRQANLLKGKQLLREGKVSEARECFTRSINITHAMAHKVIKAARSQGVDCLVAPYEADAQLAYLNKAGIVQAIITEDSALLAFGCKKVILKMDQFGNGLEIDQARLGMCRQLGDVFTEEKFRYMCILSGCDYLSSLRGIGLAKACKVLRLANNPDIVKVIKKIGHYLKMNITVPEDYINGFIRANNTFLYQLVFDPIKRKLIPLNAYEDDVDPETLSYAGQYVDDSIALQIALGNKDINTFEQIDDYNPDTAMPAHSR

B1: 5'-recessed-end substrate (gap mimic) (dsDNA)
DNA 1: TCGACTAGCG
DNA 2: CGCTAGTCGACAC
modifications: 5' phosphate on strand 1
As to B1, the binding result was “binds”.
